Reference: publication PMC7854685, “Histone Parylation factor 1 contributes to the inhibition of PARP1 by cancer drugs”

How the values were obtained:
[1] = biological target: PARP1 (UniProt P09874 1-1014); assay: fluorescence polarization (release of labelled DNA on autoPARylation); PARPi present or absent; DNA released by 2 mM NAD+, retained without NAD+; 50 mM Tris-HCl pH 8.0, 50 mM NaCl, 1 mM MgCl2, 0.1 mM EDTA, 0.01% IGEPAL; temperature not stated; conditions: protein: recombinant; label: fluorescein (5') in the FP DNA-release assay; blunt
Sequence of PARP1 (P09874 whole entry): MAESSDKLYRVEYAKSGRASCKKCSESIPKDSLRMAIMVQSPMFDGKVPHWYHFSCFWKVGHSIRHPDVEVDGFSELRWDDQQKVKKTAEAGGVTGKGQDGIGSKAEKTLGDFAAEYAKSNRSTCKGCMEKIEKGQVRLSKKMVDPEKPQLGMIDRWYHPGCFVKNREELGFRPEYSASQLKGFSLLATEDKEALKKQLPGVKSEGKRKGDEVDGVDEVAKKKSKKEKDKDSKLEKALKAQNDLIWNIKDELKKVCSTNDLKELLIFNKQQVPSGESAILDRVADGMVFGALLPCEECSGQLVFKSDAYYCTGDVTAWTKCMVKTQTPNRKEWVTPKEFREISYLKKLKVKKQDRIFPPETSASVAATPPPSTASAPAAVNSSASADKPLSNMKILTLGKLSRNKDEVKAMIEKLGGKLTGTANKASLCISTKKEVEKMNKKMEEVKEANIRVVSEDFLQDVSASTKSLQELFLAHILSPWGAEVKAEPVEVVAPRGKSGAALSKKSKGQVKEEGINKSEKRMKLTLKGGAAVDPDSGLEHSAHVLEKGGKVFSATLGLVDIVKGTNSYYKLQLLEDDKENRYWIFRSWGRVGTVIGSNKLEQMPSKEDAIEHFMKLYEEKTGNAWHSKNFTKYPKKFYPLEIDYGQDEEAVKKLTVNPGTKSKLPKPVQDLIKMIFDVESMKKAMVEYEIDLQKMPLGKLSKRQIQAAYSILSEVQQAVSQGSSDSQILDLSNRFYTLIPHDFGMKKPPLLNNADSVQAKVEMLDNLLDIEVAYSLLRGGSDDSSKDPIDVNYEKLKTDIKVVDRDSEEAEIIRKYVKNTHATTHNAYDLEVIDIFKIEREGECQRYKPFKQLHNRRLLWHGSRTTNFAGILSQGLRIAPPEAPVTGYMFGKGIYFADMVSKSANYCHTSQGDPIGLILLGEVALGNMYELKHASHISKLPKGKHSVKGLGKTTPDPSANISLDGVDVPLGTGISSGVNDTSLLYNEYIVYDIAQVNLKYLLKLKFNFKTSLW

[2] = biological target: PARP2 (UniProt Q9UGN5 1-583); assay: as above; conditions: protein: recombinant; label: fluorescein (5') in the FP DNA-release assay; blunt
Sequence of PARP2 (Q9UGN5 whole entry): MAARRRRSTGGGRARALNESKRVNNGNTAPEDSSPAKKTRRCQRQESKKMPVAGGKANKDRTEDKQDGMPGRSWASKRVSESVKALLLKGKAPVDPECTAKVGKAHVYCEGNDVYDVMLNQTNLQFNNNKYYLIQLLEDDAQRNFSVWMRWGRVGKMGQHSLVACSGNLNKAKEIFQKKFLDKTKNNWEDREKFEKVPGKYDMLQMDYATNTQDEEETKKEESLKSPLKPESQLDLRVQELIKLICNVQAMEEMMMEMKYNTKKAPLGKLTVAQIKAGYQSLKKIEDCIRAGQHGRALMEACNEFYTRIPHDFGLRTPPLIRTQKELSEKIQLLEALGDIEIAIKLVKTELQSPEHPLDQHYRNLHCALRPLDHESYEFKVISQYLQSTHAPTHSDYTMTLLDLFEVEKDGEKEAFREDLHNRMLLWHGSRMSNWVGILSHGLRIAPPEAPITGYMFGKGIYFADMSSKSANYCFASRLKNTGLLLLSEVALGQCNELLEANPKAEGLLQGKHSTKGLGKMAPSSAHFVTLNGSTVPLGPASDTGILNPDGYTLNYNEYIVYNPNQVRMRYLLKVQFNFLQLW

[3] = biological target: PARP1;HPF1 (Homo sapiens?;Homo sapiens?, UniProt P09874;Q9NWY4 1-1014;1-346, |); assay: fluorescence polarization (release of labelled DNA on autoPARylation); 2 uM HPF1, PARPi; DNA released by 2 mM NAD+; 50 mM Tris-HCl pH 8.0, 50 mM NaCl, 1 mM MgCl2, 0.1 mM EDTA, 0.01% IGEPAL; temperature not stated; conditions: protein: recombinant;recombinant; (nickel column); copies: 1;1; label: fluorescein (5') in the FP DNA-release assay; blunt
Sequence of PARP1;HPF1 (P09874 whole entry, chain 1 of 2): as the sequence (P09874 whole entry) above
Sequence of PARP1;HPF1 (Q9NWY4 whole entry, chain 2 of 2): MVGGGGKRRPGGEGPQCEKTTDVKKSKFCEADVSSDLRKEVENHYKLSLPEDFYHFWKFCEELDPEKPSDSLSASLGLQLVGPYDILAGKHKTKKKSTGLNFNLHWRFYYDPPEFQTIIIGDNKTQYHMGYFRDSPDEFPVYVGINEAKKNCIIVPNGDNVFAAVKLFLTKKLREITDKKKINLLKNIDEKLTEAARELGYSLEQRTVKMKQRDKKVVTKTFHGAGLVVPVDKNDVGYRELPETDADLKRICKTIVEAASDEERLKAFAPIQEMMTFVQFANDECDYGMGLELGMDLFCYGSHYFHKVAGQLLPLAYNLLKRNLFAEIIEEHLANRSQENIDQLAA

[4] = biological target: PARP2;HPF1 (Homo sapiens?;Homo sapiens?, UniProt Q9UGN5;Q9NWY4 1-583;1-346, |); assay: as above; conditions: protein: recombinant;recombinant; (nickel column); copies: 1;1; label: fluorescein (5') in the FP DNA-release assay; blunt
Sequence of PARP2;HPF1 (Q9UGN5 whole entry, chain 1 of 2): as the sequence (Q9UGN5 whole entry) above
Sequence of PARP2;HPF1 (Q9NWY4 whole entry, chain 2 of 2): as the sequence (Q9NWY4 whole entry, chain 2 of 2) above

Measured: binding result

B1: p18mer (dsDNA)
DNA 1: GGGTTGCGGCCGCTTGGG
DNA 2: CCCAAGCGGCCGCAACCC
modifications: 5'-phosphate
binds: all assays above
